Experimental data from the supplement of paper PMC10567573.

B1: PBXIP1 (parent)
chain: FGEDGIFRHDRLRFRDFVDALEDS

Variants of: B1
Assay: protein stability index of a GFP-peptide fusion (GPS, HEK-293T) (PSI 1-6); higher = more stable
Details: c terminus: a fixed tail appended
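Further: lentivirally expressed fusions sorted by FACS into six bins by GFP to DsRed ratio, PSI derived from sequencing read proportions per bin multiplied by bin number.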

Variant	protein stability index
FGEDGIQRHDRLRFRDFVDALEDS [F7Q]	3.36
FGEDGIWRHDRLRFRDFVDALEDS [F7W]	1.95
FGEDGISRHDRLRFRDFVDALEDS [F7S]	2.97
FGEDGIFRHDRLRFRDFVDAQEDS [L21Q]	3.57
FGEDGIFRHDRLRFRDFVDAHEDS [L21H]	3
FGEDGIFRHDRLRFRDFVDAAEDS [L21A]	3.32
FGEDGIFRHDRLRFRDFVDANEDS [L21N]	3.73
FGEDGIFRHDRLRFRDFVDAFEDS [L21F]	2.73
FGEDGIFRHDRLRFRDFVDAIEDS [L21I]	3.07
FGEDGIFRHDRLRFRDFEDALEDS [V18E]	3.5
FGEDGIFRHDRLRFRDFDDALEDS [V18D]	3.1
FGEDGIFRHDRLRFRDFCDALEDS [V18C]	3.3
FGEDGIFRHDRLRFRDFWDALEDS [V18W]	2.07
FGEDGIFRHDRLRFRDFSDALEDS [V18S]	3.11
FGEDGIFRHDRLRFRDFQDALEDS [V18Q]	3.49
FGEDGIFRHDRLRFRDFRDALEDS [V18R]	3.05
FGEDGIFRHDRLRFRDFIDALEDS [V18I]	2.17
FGEDGIFRHDRLRFRDFVDALEDT [S24T]	2.85
FGEDGIFRHDRLRFRDFVDALEDI [S24I]	2.29
FGEDGIFRHDRLRFRDFVDALEDM [S24M]	2.2
FGEDGIFRHDRLRFRDFVDALEDD [S24D]	3.5
FGEDGIFRHDRLRFRDFVDALEDQ [S24Q]	2.74
FGEDGIFRHDRLRFRDFVDALEDL [S24L]	2.32
FGEDGIFRHDRLRFRDFVDALEDV [S24V]	2.43

Variant	protein stability index
FGEDGIFRHDRLRFWDFVDALEDS [R15W]	1.97
FGEDGIFRHDRLRFLDFVDALEDS [R15L]	2.48
FGEDGIFRHDRLRFTDFVDALEDS [R15T]	2.44
FGEDGIFRHDRLRFGDFVDALEDS [R15G]	3.41
FGEDGIFRHDRLRFIDFVDALEDS [R15I]	2.23
FGEDGIFRHDRLRFPDFVDALEDS [R15P]	3.36
FGEDGIFRHDRLRFMDFVDALEDS [R15M]	2.54
FGEDGIFRHDRLRFEDFVDALEDS [R15E]	3.61
FGEDGMFRHDRLRFRDFVDALEDS [I6M]	1.97
FGEDGSFRHDRLRFRDFVDALEDS [I6S]	2.74
FGEDGGFRHDRLRFRDFVDALEDS [I6G]	3.65
FGEDGCFRHDRLRFRDFVDALEDS [I6C]	2.33
FGEDGWFRHDRLRFRDFVDALEDS [I6W]	1.96
FGEDGTFRHDRLRFRDFVDALEDS [I6T]	2.95
FGEDGPFRHDRLRFRDFVDALEDS [I6P]	3.18
FGEDYIFRHDRLRFRDFVDALEDS [G5Y]	2.59
FGEDDIFRHDRLRFRDFVDALEDS [G5D]	3.5
FGEDHIFRHDRLRFRDFVDALEDS [G5H]	3.17
FGEDCIFRHDRLRFRDFVDALEDS [G5C]	2.67
FGEDQIFRHDRLRFRDFVDALEDS [G5Q]	3.23
FGEDMIFRHDRLRFRDFVDALEDS [G5M]	3.23
FGEDSIFRHDRLRFRDFVDALEDS [G5S]	1.95
FGEDWIFRHDRLRFRDFVDALEDS [G5W]	1.4
FGEDIIFRHDRLRFRDFVDALEDS [G5I]	2.86

Variant	protein stability index
FGEDGIFRHDRLRFRDFVPALEDS [D19P]	2.53
FGEDGIFRHDRLRFRDFVKALEDS [D19K]	2.9
FGEDGIFRHDRLRFRDFVVALEDS [D19V]	1.91
FGEDGIFRHDRLRFRDFVQALEDS [D19Q]	2.49
FGEDGIFRHDRLRFRDFVWALEDS [D19W]	2.18
FGEDGIFRHDRLRFRDFVRALEDS [D19R]	2.48
FGEDGIFRHDRLRFRDFVMALEDS [D19M]	2.56
FGEDGIFRHDRLRCRDFVDALEDS [F14C]	1.99
FGEDGIFRHDRLRTRDFVDALEDS [F14T]	3.62
FGEDGIFRHDRLRPRDFVDALEDS [F14P]	3.01
FGEDGIFRHDRLRERDFVDALEDS [F14E]	3.86
FGEDGIFRHDRLRLRDFVDALEDS [F14L]	2.96
FGEDGIFEHDRLRFRDFVDALEDS [R8E]	4.23
FGEDGIFKHDRLRFRDFVDALEDS [R8K]	2.23
FGEDGIFGHDRLRFRDFVDALEDS [R8G]	2.93
FGEDGIFAHDRLRFRDFVDALEDS [R8A]	3.29
FGEDGIFMHDRLRFRDFVDALEDS [R8M]	3.06
FGEDGIFFHDRLRFRDFVDALEDS [R8F]	1.95
FGEDGIFSHDRLRFRDFVDALEDS [R8S]	2.85
FGEDGIFCHDRLRFRDFVDALEDS [R8C]	2.51
FGEDGIFPHDRLRFRDFVDALEDS [R8P]	3.8
FGEDGIFHHDRLRFRDFVDALEDS [R8H]	2.65
FGEDGIFNHDRLRFRDFVDALEDS [R8N]	3.16
FGEDGIFIHDRLRFRDFVDALEDS [R8I]	3.09

Variant	protein stability index
FGVDGIFRHDRLRFRDFVDALEDS [E3V]	2.05
FGPDGIFRHDRLRFRDFVDALEDS [E3P]	2.28
FGGDGIFRHDRLRFRDFVDALEDS [E3G]	2.11
FGYDGIFRHDRLRFRDFVDALEDS [E3Y]	3.04
FGFDGIFRHDRLRFRDFVDALEDS [E3F]	2.18
FGKDGIFRHDRLRFRDFVDALEDS [E3K]	2.52
FGNDGIFRHDRLRFRDFVDALEDS [E3N]	1.99
FGHDGIFRHDRLRFRDFVDALEDS [E3H]	2.89
FGQDGIFRHDRLRFRDFVDALEDS [E3Q]	2.91
FGADGIFRHDRLRFRDFVDALEDS [E3A]	2.75
FGEDGIFRHPRLRFRDFVDALEDS [D10P]	1.85
FGEDGIFRHCRLRFRDFVDALEDS [D10C]	1.85
FGEDGIFRHSRLRFRDFVDALEDS [D10S]	2.06
FGEDGIFRHKRLRFRDFVDALEDS [D10K]	2.04
FGEDGIFRHWRLRFRDFVDALEDS [D10W]	1.74
FGEDGIFRHYRLRFRDFVDALEDS [D10Y]	1.79
FGEDGIFRHIRLRFRDFVDALEDS [D10I]	1.67
FGEDGIFRHVRLRFRDFVDALEDS [D10V]	1.52
FGEDGIFRHMRLRFRDFVDALEDS [D10M]	2.19
FGEDGIFRHHRLRFRDFVDALEDS [D10H]	2.39
FGEDGIFRHDLLRFRDFVDALEDS [R11L]	2.33
FGEDGIFRHDALRFRDFVDALEDS [R11A]	2.57
FGEDGIFRHDWLRFRDFVDALEDS [R11W]	2.49
FGEDGIFRHDKLRFRDFVDALEDS [R11K]	2.57

Variant	protein stability index
FGEDGIFRHDRLRFRDFVDPLEDS [A20P]	3.06
FGEDGIFRHDRLRFRDFVDYLEDS [A20Y]	2.11
FGEDGIFRHDRLRFRDFVDRLEDS [A20R]	3.01
FGEDGIFRHDRLRFRDFVDDLEDS [A20D]	3.23
FGEDGIFRHDRLRFRDFVDGLEDS [A20G]	3.41
FGEDGIFRHDRLRFRDFVDILEDS [A20I]	2.28
FGEDGIFRHDRLRFRDFVDFLEDS [A20F]	2.38
FGEDGIFRHDRLRFRDFVDQLEDS [A20Q]	2.95
FGEDGIFRHDRLWFRDFVDALEDS [R13W]	1.99
FGEDGIFRHDRLFFRDFVDALEDS [R13F]	2.25
FGEDGIFRHDRLSFRDFVDALEDS [R13S]	2.92
FGEDGIFRHDRLMFRDFVDALEDS [R13M]	2.79
FGEDGIFRHDRLKFRDFVDALEDS [R13K]	2.85
FGEDGIFRHDRLEFRDFVDALEDS [R13E]	4.02
FGEDGIFRHDRLVFRDFVDALEDS [R13V]	2.72
FGEPGIFRHDRLRFRDFVDALEDS [D4P]	1.94
FGEFGIFRHDRLRFRDFVDALEDS [D4F]	1.74
FGEQGIFRHDRLRFRDFVDALEDS [D4Q]	1.83
FGEKGIFRHDRLRFRDFVDALEDS [D4K]	1.82
FGEYGIFRHDRLRFRDFVDALEDS [D4Y]	1.73
FGEMGIFRHDRLRFRDFVDALEDS [D4M]	1.79
FGEGGIFRHDRLRFRDFVDALEDS [D4G]	1.17
FGENGIFRHDRLRFRDFVDALEDS [D4N]	1.98
FWEDGIFRHDRLRFRDFVDALEDS [G2W]	2.95

Variant	protein stability index
FPEDGIFRHDRLRFRDFVDALEDS [G2P]	2.61
FDEDGIFRHDRLRFRDFVDALEDS [G2D]	3.36
FHEDGIFRHDRLRFRDFVDALEDS [G2H]	2.09
FEEDGIFRHDRLRFRDFVDALEDS [G2E]	3.73
FYEDGIFRHDRLRFRDFVDALEDS [G2Y]	3.09
FMEDGIFRHDRLRFRDFVDALEDS [G2M]	2.91
FFEDGIFRHDRLRFRDFVDALEDS [G2F]	2.75
FSEDGIFRHDRLRFRDFVDALEDS [G2S]	2.48
FKEDGIFRHDRLRFRDFVDALEDS [G2K]	2.81
FGEDGIFRYDRLRFRDFVDALEDS [H9Y]	2.46
FGEDGIFRCDRLRFRDFVDALEDS [H9C]	2.47
FGEDGIFRWDRLRFRDFVDALEDS [H9W]	2.04
FGEDGIFRVDRLRFRDFVDALEDS [H9V]	2.82
FGEDGIFRKDRLRFRDFVDALEDS [H9K]	2.08
FGEDGIFRRDRLRFRDFVDALEDS [H9R]	2.39
FGEDGIFRTDRLRFRDFVDALEDS [H9T]	2.4
FGEDGIFRMDRLRFRDFVDALEDS [H9M]	2.73
FGEDGIFRSDRLRFRDFVDALEDS [H9S]	2.79
IGEDGIFRHDRLRFRDFVDALEDS [F1I]	3.6
QGEDGIFRHDRLRFRDFVDALEDS [F1Q]	4.12
GGEDGIFRHDRLRFRDFVDALEDS [F1G]	3.59
YGEDGIFRHDRLRFRDFVDALEDS [F1Y]	2.72
MGEDGIFRHDRLRFRDFVDALEDS [F1M]	3.24
KGEDGIFRHDRLRFRDFVDALEDS [F1K]	2.64

Variant	protein stability index
CGEDGIFRHDRLRFRDFVDALEDS [F1C]	2.39
FGEDGIFRHDRLRFRDFVDALEKS [D23K]	2.23
FGEDGIFRHDRLRFRDFVDALESS [D23S]	2.22
FGEDGIFRHDRLRFRDFVDALEPS [D23P]	2.35
FGEDGIFRHDRLRFRDFVDALEFS [D23F]	1.92
FGEDGIFRHDRLRFRDFVDALENS [D23N]	2.94
FGEDGIFRHDRLRFRDFVDALEES [D23E]	2.61
FGEDGIFRHDRLRFRDFVDALERS [D23R]	1.98
FGEDGIFRHDRLRFRDFVDALEMS [D23M]	2.32
FGEDGIFRHDRLRFRDFVDALEVS [D23V]	2.29
FGEDGIFRHDRLRFRDFVDALEGS [D23G]	3.02
FGEDGIFRHDRLRFRDFVDALETS [D23T]	2.55
FGEDGIFRHDRLRFRDNVDALEDS [F17N]	3.55
FGEDGIFRHDRLRFRDEVDALEDS [F17E]	3.98
FGEDGIFRHDRLRFRDPVDALEDS [F17P]	3.44
FGEDGIFRHDRLRFRDVVDALEDS [F17V]	3.38
FGEDGIFRHDRLRFRDSVDALEDS [F17S]	3.69
FGEDGIFRHDRLRFRDHVDALEDS [F17H]	3.25
FGEDGIFRHDRLRFRDKVDALEDS [F17K]	3.09
FGEDGIFRHDRLRFRDMVDALEDS [F17M]	3.38
FGEDGIFRHDRLRFRDWVDALEDS [F17W]	2.79
FGEDGIFRHDRNRFRDFVDALEDS [L12N]	3.14
FGEDGIFRHDRRRFRDFVDALEDS [L12R]	2.58
FGEDGIFRHDRARFRDFVDALEDS [L12A]	2.88

Variant	protein stability index
FGEDGIFRHDRQRFRDFVDALEDS [L12Q]	3.17
FGEDGIFRHDRDRFRDFVDALEDS [L12D]	3.38
FGEDGIFRHDRKRFRDFVDALEDS [L12K]	2.46
FGEDGIFRHDRTRFRDFVDALEDS [L12T]	2.44
FGEDGIFRHDRPRFRDFVDALEDS [L12P]	2.43
FGEDGIFRHDRMRFRDFVDALEDS [L12M]	2.51
FGEDGIFRHDRFRFRDFVDALEDS [L12F]	2.56
FGEDGIFRHDRLRFRDFVDALHDS [E22H]	2.37
FGEDGIFRHDRLRFRDFVDALADS [E22A]	2
FGEDGIFRHDRLRFRDFVDALSDS [E22S]	2.71
FGEDGIFRHDRLRFRDFVDALDDS [E22D]	2.26
FGEDGIFRHDRLRFRDFVDALNDS [E22N]	2.56
FGEDGIFRHDRLRFRDFVDALVDS [E22V]	2.2
FGEDGIFRHDRLRFRDFVDALPDS [E22P]	2.81
FGEDGIFRHDRLRFRSFVDALEDS [D16S]	2.23
FGEDGIFRHDRLRFRPFVDALEDS [D16P]	2.27
FGEDGIFRHDRLRFRIFVDALEDS [D16I]	2.06
FGEDGIFRHDRLRFRYFVDALEDS [D16Y]	1.88
FGEDGIFRHDRLRFRKFVDALEDS [D16K]	1.99
FGEDGIFRHDRLRFRGFVDALEDS [D16G]	1.97
